Measurements as given in doi:10.1101/2025.04.02.646877 (bioRxiv, 2025).

B1: ribose repressor (RbsR) (natural protein, E. coli, UniProt P0ACQ0 1-330, looked up)
chain: MATMKDVARLAGVSTSTVSHVINKDRFVSEAITAKVEAAIKELNYAPSALARSLKLNQTHTIGMLITASTNPFYSELVRGVERSCFERGYSLVLCNTEGDEQRMNRNLETLMQKRVDGLLLLCTETHQPSREIMQRYPTVPTVMMDWAPFDGDSDLIQDNSLLGGDLATQYLIDKGHTRIACITGPLDKTPARLRLEGYRAAMKRAGLNIPDGYEVTGDFEFNGGFDAMRQLLSHPLRPQAVFTGNDAMAVGVYQALYQAELQVPQDIAVIGYDDIELASFMTPPLTTIHQPKDELGELAIDVLIHRITQPTLQQQRLQLTPILMERGSA
B2: lac repressor (LacI), functional dimeric form (residues 1-331) (domain or fragment, E. coli, UniProt P03023 1-331, looked up)
chain: MKPVTLYDVAEYAGVSYQTVSRVVNQASHVSAKTREKVEAAMAELNYIPNRVAQQLAGKQSLLIGVATSSLALHAPSQIVAAIKSRADQLGASVVVSMVERSGVEACKAAVHNLLAQRVSGLIINYPLDDQDAIAVEAACTNVPALFLDVSDQTPINSIIFSHEDGTRLGVEHLVALGHQQIALLAGPLSSVSARLRLAGWHKYLTRNQIQPIAEREGDWSAMSGFQQTMQMLNEGIVPTAMLVANDQMALGAMRAITESGLRVGADISVVGYDDTEDSSCYIPPLTTIKQDFRLLGQTSVDRLLQLSQGQAVKGNQLLPVSLVKRKTTLA

Biological target: the molecule itself
Test: SEC-MALS

Row | Protein | stoichiometry N
1 | B1 | 2
2 | B2 | 2
